Measurements published in article PMC2561067 (2008).

B1: HWTX-XI (protein)
chain: IDTCRLPSDRGRCKASFERWYFNGRTCAKFIYGGCGGNGNKFPTQEACMKRCAKA
B2: trypsin (protein)
chain: SSGTSYPDVLKCLKAPILSDSSCKSAYPGQITSNMFCAGYLEGGKDSCQGDSGGPVVCSGKLQGIVSWGSGCAQKNKPGVYTKVCNYVSWIKQTIASN

Tests used:
trypsin = target: B2; assay: ITC
BPTI = BPTI (Bos taurus, UniProt P00974); assay: ITC

Binder	Kd (trypsin) [nM]	Kd (BPTI) [nM]
B1	0.23	–
B2	–	6.57
